According to the Human Domainome abundance scans (Beltran et al. 2025):

B1: Protein C-ets-1, residues 55 to 135; numbered along this chain, P14921 (parent)
chain: GFTKEQQRLGIPKDPRQWTETHVRDWVMWAVNEFSLKGVDFQKFCMNGAALCALGKDCFLELAPDFVGDILWEHLEILQKE

Variants of: B1
Test: abundance fitness (aPCA) (normalised: wild type 0, dead -1); higher = more abundant; growth selection in yeast, the domain comes from the species named
Details: Homo sapiens

Abundance fitness: each site, then its substitutions
K56: W -0.729; F -0.865; P -0.493; S -0.7; T -0.878; R -0.004; Y -0.134; A -0.482; V -0.558; C -0.814; H -0.033; M -0.357; L -0.635; G -0.851; I -0.702; D -0.979
E61: A -0.012; S -0.011; M -0.286; D -0.013; N -0.022; Y -0.908; P -0.234; L -0.248; R -0.033; I -0.685; H -0.089; V -0.52; F -0.772; K 0.066; W -0.908; C -0.202
C58: F -0.096; S 0.035; N 0.033; I -0.094; H 0.039; E 0.05; A 0.049; M -0.009; K -0.007; V 0.018; Y 0.008; L -0.026; W -0.101; D 0.056; Q 0.045; R 0.023; T 0.016; G 0.049
G55: R -0.04; F -0.992; P 0.01; T 0.041; M -0.433; H -0.055; L -0.791; D 0.061; E 0.031; N 0.03; C 0.019; K 0.029; A 0.002; Y -0.502; Q -0.08; V -0.448
L54: D -0.791; M -0.022; W -0.582; A -0.338; H -0.598; I -0.078; E -0.614; R -0.238; Y -0.292; V -0.254; G -0.229; C -0.666; S -0.445; N -0.302; P -0.775; T -0.33; K -0.102; Q -0.299
L60: H -0.052; A -0.009; N -0.117; Y -0.058; G -0.1; T 0.001; R -0.042; D -0.23; P -0.628; Q 0.027; E -0.113; C -0.091; F -0.087; W -0.43; K 0.043; M -0.067
A53: I -0.452; Y -0.583; E 0.052; D 0.067; N 0.01; P -0.943; Q -0.097; F -0.655; H -0.188; K -0.021; S 0.016; T -0.039; M -0.09; G -0.028; R -0.046; L -0.227; W -0.583
D57: Q -0.073; L -0.216; Y -0.326; C -0.106; P -0.109; M -0.158; R -0.063; H -0.049; T -0.058; W -0.464; G -0.083; F -0.303; V -0.097; E 0.001; N -0.02; A -0.049; S -0.027; K 0.017; I -0.185
F59: R -0.496; W -0.318; E -0.944; Q -0.836; H -0.953; L -0.252; C -0.65; T -0.963; M -0.239; G -0.95; K -0.882; P -0.984; N -0.494; V -0.467; A -0.928; S -0.918; I -0.414; Y -0.869; D -0.782
L62: A -0.434
C52: M -0.079; V -0.066; N -0.497; Y -0.472; P -0.896; R -0.564; I -0.029; Q -0.494; K -0.627; W -0.641; S -0.185
